Assays:
Assay in all cases: GroEL-490 bead column capture of denatured serum, ATP elution, LC-MS-MS
[1] = target: 3-hydroxyanthranilate 3,4-dioxygenase (Homo sapiens) (UniProt P46952)
[2] = target: ATPase, H+ transporting, lysosomal V0 subunit a isoform 2 (Homo sapiens) (UniProt Q9Y487)
[3] = target: E74-like factor 4 (ets domain transcription factor) (Homo sapiens) (UniProt Q99607)
[4] = target: RAN-binding protein 2-like 1 isoform 1 (Homo sapiens) (UniProt Q99666)
[5] = target: SMC5 protein (Homo sapiens) (UniProt Q8IY18)
[6] = target: START domain containing 9 (Homo sapiens) (UniProt Q9P2P6)
[7] = target: albumin precursor (Homo sapiens) (UniProt P02768)
[8] = target: alpha 2 macroglobulin precursor (Homo sapiens) (UniProt P01023)
Sequence of alpha 2 macroglobulin precursor (Homo sapiens) (P01023 24-1474 limits assumed): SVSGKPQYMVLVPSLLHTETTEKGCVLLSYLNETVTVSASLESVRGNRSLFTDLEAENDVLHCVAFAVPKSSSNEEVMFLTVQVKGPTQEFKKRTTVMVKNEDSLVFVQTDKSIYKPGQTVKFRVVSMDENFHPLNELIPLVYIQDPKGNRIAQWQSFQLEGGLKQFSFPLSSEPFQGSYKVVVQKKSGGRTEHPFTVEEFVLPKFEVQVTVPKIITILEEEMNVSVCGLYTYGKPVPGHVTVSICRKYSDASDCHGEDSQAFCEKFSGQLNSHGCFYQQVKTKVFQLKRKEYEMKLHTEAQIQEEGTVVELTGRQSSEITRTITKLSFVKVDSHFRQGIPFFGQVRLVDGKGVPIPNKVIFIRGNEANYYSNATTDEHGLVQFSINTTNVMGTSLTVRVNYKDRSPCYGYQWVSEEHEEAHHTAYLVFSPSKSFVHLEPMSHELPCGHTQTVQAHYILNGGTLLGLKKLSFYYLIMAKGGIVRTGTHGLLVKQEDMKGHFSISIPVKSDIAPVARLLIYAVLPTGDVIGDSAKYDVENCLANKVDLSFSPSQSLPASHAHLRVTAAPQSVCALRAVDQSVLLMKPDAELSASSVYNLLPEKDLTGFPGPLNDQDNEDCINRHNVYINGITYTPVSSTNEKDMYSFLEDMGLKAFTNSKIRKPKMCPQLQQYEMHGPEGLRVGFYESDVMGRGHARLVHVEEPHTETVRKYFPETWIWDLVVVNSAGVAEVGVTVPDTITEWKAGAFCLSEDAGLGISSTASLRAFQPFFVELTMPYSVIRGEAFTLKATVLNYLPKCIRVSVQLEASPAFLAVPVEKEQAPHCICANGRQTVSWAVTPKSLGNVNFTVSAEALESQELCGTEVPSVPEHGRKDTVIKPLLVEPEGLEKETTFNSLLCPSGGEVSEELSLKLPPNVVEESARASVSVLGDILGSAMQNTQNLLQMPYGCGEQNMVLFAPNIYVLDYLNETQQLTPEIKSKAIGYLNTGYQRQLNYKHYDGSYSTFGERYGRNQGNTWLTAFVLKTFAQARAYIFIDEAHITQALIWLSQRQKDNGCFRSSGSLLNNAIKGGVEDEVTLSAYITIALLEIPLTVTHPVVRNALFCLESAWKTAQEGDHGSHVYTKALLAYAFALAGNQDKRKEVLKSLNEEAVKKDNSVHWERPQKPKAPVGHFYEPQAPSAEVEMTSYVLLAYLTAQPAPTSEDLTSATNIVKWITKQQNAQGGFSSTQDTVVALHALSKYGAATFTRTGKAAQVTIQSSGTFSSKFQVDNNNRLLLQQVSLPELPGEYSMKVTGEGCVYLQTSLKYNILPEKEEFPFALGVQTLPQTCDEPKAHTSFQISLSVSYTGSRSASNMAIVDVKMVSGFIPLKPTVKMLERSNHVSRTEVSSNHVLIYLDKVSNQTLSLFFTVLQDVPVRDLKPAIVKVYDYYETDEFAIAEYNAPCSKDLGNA

[9] = target: alpha 2 type XI collagen isoform 3 preproprotein (Homo sapiens) (UniProt P13942)
[10] = target: angiomotin like 2 (Homo sapiens) (UniProt Q9Y2J4)
[11] = target: apical protein of Xenopus-like (Homo sapiens) (UniProt Q13796)
Sequence of apical protein of Xenopus-like (Homo sapiens) (Q13796 whole entry): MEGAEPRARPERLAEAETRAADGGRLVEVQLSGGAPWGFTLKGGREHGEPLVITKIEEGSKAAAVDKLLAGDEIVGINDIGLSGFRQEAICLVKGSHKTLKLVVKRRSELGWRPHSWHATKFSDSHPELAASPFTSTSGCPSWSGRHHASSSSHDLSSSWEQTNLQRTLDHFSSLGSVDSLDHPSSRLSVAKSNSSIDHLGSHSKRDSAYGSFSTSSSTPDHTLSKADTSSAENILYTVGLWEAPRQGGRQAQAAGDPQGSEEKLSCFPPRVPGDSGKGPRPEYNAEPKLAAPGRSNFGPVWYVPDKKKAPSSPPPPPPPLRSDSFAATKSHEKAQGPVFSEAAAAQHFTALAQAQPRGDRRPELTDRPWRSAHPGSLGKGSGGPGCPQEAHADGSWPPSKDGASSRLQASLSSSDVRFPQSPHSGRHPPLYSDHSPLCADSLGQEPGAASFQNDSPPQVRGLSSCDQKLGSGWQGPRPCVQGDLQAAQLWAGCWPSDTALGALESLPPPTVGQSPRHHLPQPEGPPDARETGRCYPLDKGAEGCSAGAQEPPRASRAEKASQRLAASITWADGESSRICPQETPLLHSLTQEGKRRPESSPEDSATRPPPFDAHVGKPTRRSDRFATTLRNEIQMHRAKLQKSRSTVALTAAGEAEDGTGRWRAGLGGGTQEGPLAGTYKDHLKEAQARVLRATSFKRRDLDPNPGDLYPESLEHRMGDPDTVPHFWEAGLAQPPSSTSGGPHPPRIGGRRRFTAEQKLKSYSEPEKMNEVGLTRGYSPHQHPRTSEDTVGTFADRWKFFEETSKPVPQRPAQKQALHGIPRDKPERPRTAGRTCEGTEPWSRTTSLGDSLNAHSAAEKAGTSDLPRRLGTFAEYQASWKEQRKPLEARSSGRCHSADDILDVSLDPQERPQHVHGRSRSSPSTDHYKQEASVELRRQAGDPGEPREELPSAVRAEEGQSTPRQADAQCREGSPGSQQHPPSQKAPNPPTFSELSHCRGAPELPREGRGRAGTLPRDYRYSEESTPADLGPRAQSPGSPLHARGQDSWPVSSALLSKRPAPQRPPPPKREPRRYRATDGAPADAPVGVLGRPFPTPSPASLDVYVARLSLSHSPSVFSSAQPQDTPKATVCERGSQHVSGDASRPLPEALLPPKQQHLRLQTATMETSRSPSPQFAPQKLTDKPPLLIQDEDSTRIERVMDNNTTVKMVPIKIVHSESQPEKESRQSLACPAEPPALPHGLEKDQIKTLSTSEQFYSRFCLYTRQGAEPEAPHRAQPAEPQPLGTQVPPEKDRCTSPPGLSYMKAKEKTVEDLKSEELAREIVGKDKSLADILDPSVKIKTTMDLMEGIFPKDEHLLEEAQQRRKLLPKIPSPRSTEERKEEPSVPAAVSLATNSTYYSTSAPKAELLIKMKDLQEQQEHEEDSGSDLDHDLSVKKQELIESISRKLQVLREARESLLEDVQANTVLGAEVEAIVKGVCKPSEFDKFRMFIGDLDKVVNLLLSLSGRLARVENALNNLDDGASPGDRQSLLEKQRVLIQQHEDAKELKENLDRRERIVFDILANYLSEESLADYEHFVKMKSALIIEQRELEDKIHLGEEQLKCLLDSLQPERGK

[12] = target: bassoon (Homo sapiens) (UniProt Q9UPA5)
[13] = target: ceruloplasmin (ferroxidase) (Homo sapiens) (UniProt P00450)
[14] = target: complement component 4 binding protein, alpha (Homo sapiens) (UniProt P04003)
Sequence of complement component 4 binding protein, alpha (Homo sapiens) (P04003 49-597): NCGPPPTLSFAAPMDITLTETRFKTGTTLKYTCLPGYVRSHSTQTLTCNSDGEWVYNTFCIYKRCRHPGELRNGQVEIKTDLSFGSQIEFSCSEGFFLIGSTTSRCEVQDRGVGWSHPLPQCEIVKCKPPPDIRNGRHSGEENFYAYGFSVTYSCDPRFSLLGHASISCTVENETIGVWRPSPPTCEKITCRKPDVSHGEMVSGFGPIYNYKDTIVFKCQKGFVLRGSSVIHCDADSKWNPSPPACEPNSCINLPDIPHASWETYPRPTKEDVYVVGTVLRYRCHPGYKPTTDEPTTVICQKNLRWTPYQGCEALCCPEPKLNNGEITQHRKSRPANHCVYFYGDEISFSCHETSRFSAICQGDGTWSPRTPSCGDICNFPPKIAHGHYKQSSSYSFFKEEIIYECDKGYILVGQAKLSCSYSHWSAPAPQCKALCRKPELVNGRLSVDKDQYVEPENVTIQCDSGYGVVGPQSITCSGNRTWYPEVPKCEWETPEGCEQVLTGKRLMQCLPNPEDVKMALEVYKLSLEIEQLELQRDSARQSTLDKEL

[15] = target: extra spindle poles like 1 (Homo sapiens) (UniProt Q14674)
[16] = target: glutaminase C (Homo sapiens) (UniProt O94925)
[17] = target: hematopoletic protein 1 (Homo sapiens) (UniProt P55160)
[18] = target: hemicentin (Homo sapiens) (UniProt Q96RW7)
[19] = target: hemopexin (Homo sapiens) (UniProt P02790)
[20] = target: hypothetical protein FLJ22344 (Homo sapiens)
[21] = target: hypothetical protein XP_376158 (Homo sapiens)
[22] = target: keratin 1 (Homo sapiens) (UniProt P04264)
[23] = target: microfilament and actin filament cross-linker protein isoform a (UniProt Q9UPN3)
[24] = target: neutral sphingomyelinase (N-SMase) activation associated factor (Homo sapiens) (UniProt Q92636)
Sequence of neutral sphingomyelinase (N-SMase) activation associated factor (Homo sapiens) (Q92636 whole entry): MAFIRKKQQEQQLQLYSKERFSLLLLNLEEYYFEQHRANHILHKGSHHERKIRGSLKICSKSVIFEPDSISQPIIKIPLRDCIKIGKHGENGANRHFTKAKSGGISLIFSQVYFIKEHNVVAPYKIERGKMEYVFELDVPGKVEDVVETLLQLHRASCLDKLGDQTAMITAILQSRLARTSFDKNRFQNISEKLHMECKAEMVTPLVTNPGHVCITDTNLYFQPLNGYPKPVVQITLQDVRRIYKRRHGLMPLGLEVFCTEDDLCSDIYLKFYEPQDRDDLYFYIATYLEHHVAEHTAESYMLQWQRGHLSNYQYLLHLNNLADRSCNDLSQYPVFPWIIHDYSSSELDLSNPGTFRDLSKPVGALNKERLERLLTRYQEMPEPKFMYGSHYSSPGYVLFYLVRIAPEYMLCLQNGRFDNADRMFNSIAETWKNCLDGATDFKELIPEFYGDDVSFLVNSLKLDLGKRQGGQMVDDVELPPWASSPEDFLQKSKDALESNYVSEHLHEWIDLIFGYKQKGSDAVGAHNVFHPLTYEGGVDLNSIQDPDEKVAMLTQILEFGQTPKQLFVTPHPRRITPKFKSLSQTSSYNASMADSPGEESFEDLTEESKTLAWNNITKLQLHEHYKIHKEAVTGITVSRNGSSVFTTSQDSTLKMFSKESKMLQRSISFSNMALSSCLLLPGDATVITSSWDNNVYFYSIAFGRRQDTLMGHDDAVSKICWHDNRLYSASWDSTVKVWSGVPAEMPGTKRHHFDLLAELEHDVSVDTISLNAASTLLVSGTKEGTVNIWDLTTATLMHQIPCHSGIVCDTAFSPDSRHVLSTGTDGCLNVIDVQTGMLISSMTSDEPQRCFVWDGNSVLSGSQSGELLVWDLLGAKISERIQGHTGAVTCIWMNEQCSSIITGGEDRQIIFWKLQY

[25] = target: odd Oz/Ten-m homolog 3 (Homo sapiens) (UniProt Q9P273)
[26] = target: phosphoinositide-specific phospholipase C beta 1 isoform a (UniProt Q9NQ66)
[27] = target: retinoblastoma binding protein 8 isoform b (Homo sapiens) (UniProt Q99708)
[28] = target: similar to Ig alpha-2 chain C region (Homo sapiens) (UniProt P25787)
[29] = target: similar to KIAA1074 protein (Homo sapiens) (UniProt Q9UPS8)
[30] = target: similar to ataxin 2 binding protein 1 isoform gamma (Homo sapiens)
[31] = target: solute carrier family 4, anion exchanger, member 2 (erythrocyte membrane protein band 3-liKe 1) (Homo sapiens) (UniProt P04920)
[32] = target: triple functional domain (PTPRF interacting) (Homo sapiens) (UniProt O75962)
[33] = target: very large G-protein coupled receptor 1 (Homo sapiens) (UniProt Q8WXG9)
[34] = target: zinc finger protein 469 (Homo sapiens) (UniProt Q96JG9)

Sequence of GroEL having Aspartate 490 substituted with Cysteine, biotinylated and conjugated onto NeutrAvidin beads (A1AJ51 whole entry D490C): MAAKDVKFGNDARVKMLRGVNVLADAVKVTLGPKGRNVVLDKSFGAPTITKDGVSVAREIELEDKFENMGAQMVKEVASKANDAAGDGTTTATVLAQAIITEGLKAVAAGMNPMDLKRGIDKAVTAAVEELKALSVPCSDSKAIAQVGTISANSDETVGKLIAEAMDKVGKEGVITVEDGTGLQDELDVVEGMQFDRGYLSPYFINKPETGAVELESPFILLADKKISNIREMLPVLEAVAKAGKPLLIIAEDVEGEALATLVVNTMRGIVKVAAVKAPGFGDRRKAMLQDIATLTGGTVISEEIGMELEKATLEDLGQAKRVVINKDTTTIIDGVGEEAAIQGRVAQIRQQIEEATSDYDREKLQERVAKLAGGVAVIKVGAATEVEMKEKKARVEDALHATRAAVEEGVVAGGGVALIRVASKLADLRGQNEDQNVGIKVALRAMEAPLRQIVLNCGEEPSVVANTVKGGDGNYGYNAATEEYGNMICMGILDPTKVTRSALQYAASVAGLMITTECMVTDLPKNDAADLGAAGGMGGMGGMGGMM

GroEL having Aspartate 490 substituted with Cysteine, biotinylated and conjugated onto NeutrAvidin beads (from UniProt A1AJ51 1-548)
Spectrum Count [1]: 9 count
Spectrum Count [2]: 12 count
Spectrum Count [3]: 17 count
Spectrum Count [4]: 11 count
Spectrum Count [5]: 9 count
Spectrum Count [6]: 10 count
Spectrum Count [7]: 475 count
Spectrum Count [8]: 43 count
Spectrum Count [9]: 10 count
Spectrum Count [10]: 17 count
Spectrum Count [11]: 11 count
Spectrum Count [12]: 12 count
Spectrum Count [13]: 19 count
Spectrum Count [14]: 14 count
Spectrum Count [15]: 9 count
Spectrum Count [16]: 27 count
Spectrum Count [17]: 35 count
Spectrum Count [18]: 10 count
Spectrum Count [19]: 35 count
Spectrum Count [20]: 10 count
Spectrum Count [21]: 15 count
Spectrum Count [22]: 16 count
Spectrum Count [23]: 10 count
Spectrum Count [24]: 9 count
Spectrum Count [25]: 14 count
Spectrum Count [26]: 34 count
Spectrum Count [27]: 22 count
Spectrum Count [28]: 19 count
Spectrum Count [29]: 28 count
Spectrum Count [30]: 11 count
Spectrum Count [31]: 12 count
Spectrum Count [32]: 14 count
Spectrum Count [33]: 14 count
Spectrum Count [34]: 13 count

From patent US20090093061A1
